Legend:
soluble human RGMc [1] = target: T1, soluble human RGMc (human, UniProt Q6ZVN8 36-400); test: SPR (BIAcore), soluble hRGMc; summary table
T1 construct: also called huRGMc; soluble hRGMc
T1 sequence: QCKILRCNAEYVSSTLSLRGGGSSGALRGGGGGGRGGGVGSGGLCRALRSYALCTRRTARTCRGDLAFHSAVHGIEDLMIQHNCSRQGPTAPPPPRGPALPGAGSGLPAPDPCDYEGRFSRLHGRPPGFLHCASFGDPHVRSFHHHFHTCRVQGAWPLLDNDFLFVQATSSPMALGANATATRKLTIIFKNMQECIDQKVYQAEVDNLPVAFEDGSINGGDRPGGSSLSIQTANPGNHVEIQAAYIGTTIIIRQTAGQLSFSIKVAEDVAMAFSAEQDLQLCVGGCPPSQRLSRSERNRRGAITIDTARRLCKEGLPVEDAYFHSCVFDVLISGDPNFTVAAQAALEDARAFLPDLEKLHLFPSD

soluble human RGMa [2] = target: T2, soluble human RGMa (human, UniProt Q96B86 48-422, limits assumed); test: SPR (BIAcore);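 note: Anti-HJV antibodies tested for binding against soluble human RGMa by surface plasmon resonance on a BIAcore instrument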
T2 construct: Soluble antigen in BIAcore; also called huRGMa; repulsive guidance molecule A
T2 sequence (looked up): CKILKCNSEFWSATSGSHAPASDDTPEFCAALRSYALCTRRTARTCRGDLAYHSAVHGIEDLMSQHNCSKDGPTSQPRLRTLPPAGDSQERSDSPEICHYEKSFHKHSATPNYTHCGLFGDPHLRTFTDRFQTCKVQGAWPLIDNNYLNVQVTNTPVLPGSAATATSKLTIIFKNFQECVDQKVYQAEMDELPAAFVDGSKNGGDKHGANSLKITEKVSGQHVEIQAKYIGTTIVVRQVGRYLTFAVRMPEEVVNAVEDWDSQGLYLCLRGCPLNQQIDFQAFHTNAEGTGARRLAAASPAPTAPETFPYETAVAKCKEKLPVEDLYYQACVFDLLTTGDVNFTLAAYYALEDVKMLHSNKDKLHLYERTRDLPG
Protocol: (§1) Binding affinities of the anti-HJV antibodies to soluble human RGMa, Rat RGMa and human RGMc were measured by BIAcore analysis.

soluble human RGMc [3] = target: T1, soluble human RGMc; test: SPR; method not named in Example 2
soluble human RGMa [4] = target: T2, soluble human RGMa; test: SPR; method not named in Example 2
soluble rat RGMa = target: T3, soluble rat RGMa (rat, UniProt D4A188 48-421); test: SPR (BIAcore);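 note: binding kinetics and affinity of anti-HJV antibodies toward soluble rat RGMa, determined by SPR on a BIAcore instrument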
T3 construct: Soluble antigen in BIAcore
T3 sequence: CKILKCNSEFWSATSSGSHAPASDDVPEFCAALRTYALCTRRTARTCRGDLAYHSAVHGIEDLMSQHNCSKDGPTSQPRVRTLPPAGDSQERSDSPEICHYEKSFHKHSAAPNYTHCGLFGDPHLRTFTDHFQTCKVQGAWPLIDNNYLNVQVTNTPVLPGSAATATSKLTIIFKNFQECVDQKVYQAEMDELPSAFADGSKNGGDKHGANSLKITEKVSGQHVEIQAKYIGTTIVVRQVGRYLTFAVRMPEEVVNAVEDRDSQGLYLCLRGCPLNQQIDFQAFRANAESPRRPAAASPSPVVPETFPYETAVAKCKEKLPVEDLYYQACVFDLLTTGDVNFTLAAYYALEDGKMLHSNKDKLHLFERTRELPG
Protocol: as §1

[5] = target: T4, membrane-bound human RGMc (human, UniProt Q6ZVN8 36-400); test: cell-based or functional assay
T4 sequence: T1 sequence

Rat RGMc = target: T5, Rat RGMc (rat, UniProt Q8N7M5 36-396, limits assumed); test: SPR (BIAcore), RGM antigen in solution
T5 sequence (looked up): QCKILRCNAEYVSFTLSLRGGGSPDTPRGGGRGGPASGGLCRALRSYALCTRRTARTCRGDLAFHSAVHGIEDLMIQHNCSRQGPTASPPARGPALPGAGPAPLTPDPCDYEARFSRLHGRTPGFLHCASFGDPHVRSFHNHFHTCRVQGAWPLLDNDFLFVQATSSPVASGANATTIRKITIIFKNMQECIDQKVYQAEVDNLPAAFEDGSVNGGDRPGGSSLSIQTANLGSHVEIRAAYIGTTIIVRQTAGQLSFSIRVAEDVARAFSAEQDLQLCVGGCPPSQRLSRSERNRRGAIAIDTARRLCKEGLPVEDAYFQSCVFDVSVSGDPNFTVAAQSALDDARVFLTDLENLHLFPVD

soluble human RGMc [6] = target: T1, soluble human RGMc; test: SPR (BIAcore);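 note: Anti-HJV antibodies, binding affinity to soluble human RGMc measured by BIAcore surface plasmon resonance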
Protocol: as §1

[7] = target: T4, membrane-bound human RGMc; test: cell-based or functional assay; remark: listed apart in the source
[8] = target: T6, membrane-bound human RGMa (human, UniProt Q96B86 169-424); test: cell-based or functional assay
T6 sequence (looked up): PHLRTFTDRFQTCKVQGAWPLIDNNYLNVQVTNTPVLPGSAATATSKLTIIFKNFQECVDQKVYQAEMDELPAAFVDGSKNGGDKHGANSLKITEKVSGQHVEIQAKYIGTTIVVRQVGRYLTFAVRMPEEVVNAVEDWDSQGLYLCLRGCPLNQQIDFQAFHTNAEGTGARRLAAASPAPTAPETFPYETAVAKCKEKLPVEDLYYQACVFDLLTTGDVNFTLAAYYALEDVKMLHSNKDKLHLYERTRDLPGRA

B1: hHA-008 (antibody, human IgG1, kappa, L234A L235A)
heavy: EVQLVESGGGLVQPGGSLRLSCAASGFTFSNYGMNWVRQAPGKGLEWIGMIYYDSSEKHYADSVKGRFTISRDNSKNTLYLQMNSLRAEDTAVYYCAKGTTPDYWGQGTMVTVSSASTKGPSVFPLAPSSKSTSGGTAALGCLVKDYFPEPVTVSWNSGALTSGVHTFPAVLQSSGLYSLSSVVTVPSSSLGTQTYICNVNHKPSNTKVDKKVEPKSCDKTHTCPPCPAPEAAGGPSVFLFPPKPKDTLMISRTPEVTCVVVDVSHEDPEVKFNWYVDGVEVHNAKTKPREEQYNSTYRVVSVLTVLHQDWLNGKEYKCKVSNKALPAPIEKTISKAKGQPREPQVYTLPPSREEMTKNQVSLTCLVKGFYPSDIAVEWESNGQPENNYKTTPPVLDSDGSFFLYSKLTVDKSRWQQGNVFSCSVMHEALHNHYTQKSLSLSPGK
light: DVVLTQSPLSLPVTLGQPASISCRSSQSLEESDGYTFLHWFQQRPGQSPRLLIYEVSTRFSGVPDRFSGSGSGTDFTLKISRVEAEDVGVYYCFQATHDPLTFGQGTKLEIKRTVAAPSVFIFPPSDEQLKSGTASVVCLLNNFYPREAKVQWKVDNALQSGNSQESVTEQDSKDSTYSLSSTLTLSKADYEKHKVYACEVTHQGLSSPVTKSFNRGEC
notes: hIgG1 L234A, L235A, kappa; also called hHA-008 (hIgG1mut(LALA)/k)
B1 was tested, and the Kd (soluble human RGMc [1]) was 0.105 nM, the koff (soluble human RGMc [1]) was 0.00039 s⁻¹ and the kon (soluble human RGMc [1]) was 3.95e+06 M⁻¹ s⁻¹. The Kd (soluble human RGMa [2]) was 0.031 nM, the koff (soluble human RGMa [2]) was 2.7e-05 s⁻¹ and the kon (soluble human RGMa [2]) was 870000 M⁻¹ s⁻¹. The Kd (soluble human RGMc [3]) was 0.11 nM, the koff (soluble human RGMc [3]) was 0.00032 s⁻¹ and the kon (soluble human RGMc [3]) was 3e+06 M⁻¹ s⁻¹. For the same binder, the Kd (soluble human RGMa [4]) was 0.078 nM, the koff (soluble human RGMa [4]) was 4.2e-05 s⁻¹ and the kon (soluble human RGMa [4]) was 540000 M⁻¹ s⁻¹. It also gave a Kd (soluble rat RGMa) of less than 0.0015 nM, a koff (soluble rat RGMa) of less than 1e-06 s⁻¹ and a kon (soluble rat RGMa) of 660000 M⁻¹ s⁻¹. For the same binder, the “IC50 (nM), BMP reporter assay for RGMc (BRE-Luc, HEK293)” value [5] was 0.377 nM, the Kd (Rat RGMc) was 0.23 nM and the koff (Rat RGMc) was 0.00032 s⁻¹. The kon (Rat RGMc) was 1.4e+06 M⁻¹ s⁻¹, the Kd (soluble human RGMc [6]) was 0.105 nM and the koff (soluble human RGMc [6]) was 0.00039 s⁻¹. For the same binder, the kon (soluble human RGMc [6]) was 3.95e+06 M⁻¹ s⁻¹, the “Potency on membrane hRGMc (RGMc/BMP reporter assay), IC50” value [7] was 0.37 nM and the “IC50 (nM), BMP reporter assay for RGMa” value [8] was roughly 56.5 nM.

From patent US20240417458A1 (DISC MEDICINE, published 2024)
